# According to patent publication US10502741B2, “Means and methods for detecting activated MALT1” (Helmholtz Zentrum München Deutsches Forschungszentrum für …, priority 2014, dated 2019):
# The star is where a group is joined. BODIPY(FL) = CC1=CC(C)=[N+]2C1=Cc1ccc(CCC(=O)*)n1[B-]2(F)F; AOMK = acyloxymethyl ketone C-terminal warhead; alkyne = not defined here
# Key:
# FLAG-MALT1 wt = target: T1, FLAG-MALT1 wt (Homo sapiens, UniProt Q9UDY8); assay: Labeling with diagnostic MALT1 inhibitor after immunoprecipitation (gel-based, fluorescence scan); type: binding; details: probe pre-clicked to TAMRA, after FLAG immunoprecipitation in Jurkat T cells
# T1 construct: expressed in transfected cells; host or cells: Jurkat T cells (pEF vector, electroporation)
# T1 sequence (Q9UDY8 1-813 isoform Q9UDY8-2): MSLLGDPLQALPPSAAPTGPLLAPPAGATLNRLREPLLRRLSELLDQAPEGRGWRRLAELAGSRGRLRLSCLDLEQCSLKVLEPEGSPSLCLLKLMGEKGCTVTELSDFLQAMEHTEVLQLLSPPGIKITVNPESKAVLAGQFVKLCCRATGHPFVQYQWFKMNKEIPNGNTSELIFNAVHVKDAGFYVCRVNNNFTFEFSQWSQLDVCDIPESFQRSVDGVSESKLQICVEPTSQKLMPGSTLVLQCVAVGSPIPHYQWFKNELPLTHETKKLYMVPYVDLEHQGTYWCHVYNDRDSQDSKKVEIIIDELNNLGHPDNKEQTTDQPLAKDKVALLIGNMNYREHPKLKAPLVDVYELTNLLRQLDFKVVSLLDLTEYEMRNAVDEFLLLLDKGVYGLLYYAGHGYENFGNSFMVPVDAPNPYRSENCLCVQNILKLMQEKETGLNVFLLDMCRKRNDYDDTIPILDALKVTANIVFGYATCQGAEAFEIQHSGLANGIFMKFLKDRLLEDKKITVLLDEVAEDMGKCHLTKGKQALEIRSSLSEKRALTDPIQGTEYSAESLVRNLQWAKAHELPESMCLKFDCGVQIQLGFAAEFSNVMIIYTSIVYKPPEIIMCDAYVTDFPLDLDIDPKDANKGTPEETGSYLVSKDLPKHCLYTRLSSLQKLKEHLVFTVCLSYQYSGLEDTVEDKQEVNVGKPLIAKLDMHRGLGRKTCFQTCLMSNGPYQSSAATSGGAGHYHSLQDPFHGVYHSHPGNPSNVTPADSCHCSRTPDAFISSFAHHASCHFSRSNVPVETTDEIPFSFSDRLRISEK
# Protocol: Jurkat T cells, transfected with active FLAG-[…] wt or active site mutant C464A, were stained after lysis and IP with probe 2, pre-clicked to TAMRA. Analysis was done by fluorescence staining.
# Copper I-catalysed click chemistry reaction was performed in 50 μl 50 mM hepes with 10 μM alkyne-LRSR-AOMK (probe 2) and 10 μM N-TAMRA-3-aminopropylazide or 100 μM N-FITC-3-aminopropylazide. Reducing agent sodium ascorbate (0.5 mM), TBTA (50 μM) and CuSO4 (1 mM) were added to the reaction and incubated for 45 min at RT.
# Cells were lysed in 500 μl co-IP buffer without protease inhibitors (25 mM hepes pH 7.5, 150 mM NaCl, 0.2% NP-40, 10% glycerol, 1 mM DTT, 10 mM sodium fluoride, 8 mM (3-glycerophosphate and 300 μM sodium vanadate), centrifuged (14000 rpm, 10 min, 4° C.) and overexpressed FLAG MALT1 was immunoprecipitated by FLAG (M2) antibody for 3 hours at 4° C. PGS was added for 1 h at 4° C., precipitate was washed 2× with co-IP buffer and 1× with 50 mM hepes pH 7.4. Precipitated MALT1 was incubated with 0.3 μM pre-clicked probe 2 (in 20 μl 50 mM hepes pH 7.4) for 50 min at 29° C., mixed with 4× loading dye and boiled for 3 min. After protein separation by SDS PAGE, staining with diagnostic inhibitor was detected by Typhoon Fluorescence Scanner (FITC laser 488 nm/filter 526 SP; TAMRA laser 532 nm/filter 580 BP).
# active MALT1 [1] = target: T2, active MALT1 (Homo sapiens, UniProt Q9UDY8); assay: Labeling with diagnostic inhibitor in cell extracts (gel-based, fluorescence scan): active MALT1 band; details: 2×10^6 primary human T cells, 3 μM probe
# T2 construct: endogenous in cells; host or cells: Jurkat T cells, primary human PBMCs and T cells, DLBCL cell lines (HBL1, TMD8, OCI-Ly3, OCI-Ly10, U2932, RIVA, BJAB, Su-DHL-4, Su-DHL-6)
# T2 sequence (Q9UDY8 1-824): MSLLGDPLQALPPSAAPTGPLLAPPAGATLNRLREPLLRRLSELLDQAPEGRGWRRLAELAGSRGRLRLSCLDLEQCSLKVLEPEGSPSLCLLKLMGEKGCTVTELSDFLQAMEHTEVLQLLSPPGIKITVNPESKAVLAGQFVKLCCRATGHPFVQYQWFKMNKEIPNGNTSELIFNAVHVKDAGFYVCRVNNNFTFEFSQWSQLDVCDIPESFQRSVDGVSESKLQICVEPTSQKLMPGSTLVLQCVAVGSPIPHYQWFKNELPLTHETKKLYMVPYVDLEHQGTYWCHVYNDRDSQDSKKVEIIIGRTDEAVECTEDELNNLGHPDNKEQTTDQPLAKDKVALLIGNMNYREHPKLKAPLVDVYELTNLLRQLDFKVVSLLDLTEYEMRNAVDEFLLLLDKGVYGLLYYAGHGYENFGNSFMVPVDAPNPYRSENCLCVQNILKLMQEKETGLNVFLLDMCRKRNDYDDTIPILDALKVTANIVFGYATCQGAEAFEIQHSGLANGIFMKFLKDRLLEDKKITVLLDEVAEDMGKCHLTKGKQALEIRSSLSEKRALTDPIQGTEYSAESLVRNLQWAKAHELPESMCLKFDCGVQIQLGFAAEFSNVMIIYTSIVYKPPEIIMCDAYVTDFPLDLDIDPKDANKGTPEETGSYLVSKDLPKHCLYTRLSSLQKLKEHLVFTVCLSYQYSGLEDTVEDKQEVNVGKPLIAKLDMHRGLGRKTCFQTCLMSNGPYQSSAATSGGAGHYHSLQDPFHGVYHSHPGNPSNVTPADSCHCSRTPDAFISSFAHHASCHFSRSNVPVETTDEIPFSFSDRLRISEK
# cathepsin B = cathepsin B (Homo sapiens, UniProt P07858); assay: Labeling with diagnostic inhibitor in cell extracts (gel-based, fluorescence scan): about 30 kDa cathepsin B band; design: endogenous in cells; host or cells: Jurkat T cells; HBL1 and other DLBCL cell lines; details: Jurkat T cells, whole cell extract
# Protocol: (§1) Jurkat T cells were cultured in standard RPMI medium containing 10% FCS, 100 U/ml Penicillin/Streptomycin and 2 mM Glutamin. DNA transfection of 6 μg DNA in 8×10^6 Jurkat T cells was performed by electroporation in a GenePulser Xcell (BioRad) with a 220 Volt pulse. For siRNA experiments, Jurkat T cells were transfected with 100 nM siRNA and Atufect transfection reagent (Silence Therapeutics, Berlin). Jurkat T cells were stimulated either with 200 ng/ml PMA (phorbol 12-myristate 13-acetate) and 300 ng/ml Ionomycin (both Calbiochem) or CD3/CD28 antibody co-ligation (human CD3: 1 μg/ml; human CD28: 4 μg/ml; mouse IgG1: 2 μg/ml; mouse IgG2a: 2 μg/ml; BD Biosciences). DLBCL cell lines (HBL1, TMD8, OCI-Ly3, U2932, RIVA, BJAB, Su-DHL-4 and Su-DHL-6) were cultured in standard RPMI medium containing 20% FCS, 100 U/ml Penicillin/Streptomycin and 2 mM Glutamin. OCI-Ly10 cell line was cultured in IMDM containing 20% human serum, 100 U/ml Penicillin/Streptomycin, 2 U/ml heparine, 50 μM β-mercaptoethanol. Inhibitors 10 μM (z-VRPR-FMK, Mepazine, Thioridazine, CA-074Me) were added to the cells in media for 1 h, prior to stimulation and labeling with diagnostic MALT1 inhibitor.
# (§2) Jurkat T cells (1-2×10^7), primary human PBMCs or primary human T cells (0.25 or 1×10^7) were lysed in 150 μl co-IP buffer without protease inhibitors. DLBCL (3×10^7) were lysed in 250 μl buffer. After centrifugation (14000 rpm, 10 min, 4° C.), 100 μl extract (DLBCL: 200 μl) was stained with probe 5 or probe 6 (3 μM end) for 50 min at 29° C., mixed with 4× loading dye and boiled.
# active MALT1 [2] = target: T2, active MALT1; assay: Labeling with diagnostic inhibitor in cell extracts (gel-based, fluorescence scan): active MALT1 band
# Protocol: as §1, §2
"active MALT1 signal in primary human T cells, gel-based (active MALT1 [1])",cathepsin B labeling compared with probe 5 (cathepsin B),active MALT1 signal in lymphoma whole cell extracts (active MALT1 [2]; ABC DLBCL cells (HBL1 for probe 6)),"MALT1-probe labeling in GCB DLBCL cells (active MALT1 [2]; panel of GCB DLBCL pretreated with CA-074Me, whole cell lysates)",Substance,labeling of overexpressed FLAG-MALT1 wt versus catalytic inactive mutant (FLAG-MALT1 wt),"active MALT1 labeling compared with probe 5 (active MALT1 [2]; Jurkat T cells, whole cell extract)","MALT1-probe complex in ABC DLBCL cells (active MALT1 [2]; panel of ABC DLBCL pretreated with CA-074Me, whole cell lysates, no stimulation)"
,,,,"alkyne-LRSR-AOMK (alkyne-LRSR-{AOMK}; not fully specified; reading uncertain) [probe 2, used pre-clicked to TAMRA]",FLAG-MALT1 wt but not the catalytic inactive mutant was detected,,
weak active MALT1 signal,cathepsin B labeling was even reduced,weakly labeled active MALT1,all negative,(BODIPY-FL)-LRSR-AOMK ({BODIPY(FL)}-LRSR-{AOMK}) [probe 6],,slightly more effective in active MALT1 labeling,detected even in the absence of any stimulation
